Target: FKBP1A (UniProt P62942)
Test: co-precipitation from transfected Jurkat cells
Conditions: reference: WT TGFβRI; sites T200

TGFβRI (from UniProt P36897) T200V TGFβRI
binding against the reference: stronger

Source: PMC3556779
